Consider 1 substance from US20160257757A1.

Assay [1] concerns the target full-length mouse GCGR (mouse) (UniProt Q61606). Description: cell-based or functional assay.
In assay [2] the target is full-length rat GCGR transiently expressed on HEK293 reporter cells (rat) (UniProt P30082). Description: cell-based or functional assay.
Chain of full-length rat GCGR transiently expressed on HEK293 reporter cells (rat) (P30082 27-485 limits assumed): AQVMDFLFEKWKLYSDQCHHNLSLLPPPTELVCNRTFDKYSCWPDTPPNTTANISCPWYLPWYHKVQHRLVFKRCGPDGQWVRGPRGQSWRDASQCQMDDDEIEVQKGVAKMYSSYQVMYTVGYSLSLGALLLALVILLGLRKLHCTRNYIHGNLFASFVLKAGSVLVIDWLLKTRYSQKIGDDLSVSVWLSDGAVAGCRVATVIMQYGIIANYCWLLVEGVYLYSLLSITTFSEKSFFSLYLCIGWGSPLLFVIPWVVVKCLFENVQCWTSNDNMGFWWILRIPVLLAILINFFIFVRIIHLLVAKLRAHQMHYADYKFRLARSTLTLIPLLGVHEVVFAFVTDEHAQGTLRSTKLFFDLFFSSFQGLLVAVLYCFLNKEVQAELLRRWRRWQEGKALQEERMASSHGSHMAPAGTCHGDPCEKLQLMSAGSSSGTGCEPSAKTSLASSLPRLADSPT

Chain of full-length mouse GCGR (mouse) (Q61606 27-485 limits assumed): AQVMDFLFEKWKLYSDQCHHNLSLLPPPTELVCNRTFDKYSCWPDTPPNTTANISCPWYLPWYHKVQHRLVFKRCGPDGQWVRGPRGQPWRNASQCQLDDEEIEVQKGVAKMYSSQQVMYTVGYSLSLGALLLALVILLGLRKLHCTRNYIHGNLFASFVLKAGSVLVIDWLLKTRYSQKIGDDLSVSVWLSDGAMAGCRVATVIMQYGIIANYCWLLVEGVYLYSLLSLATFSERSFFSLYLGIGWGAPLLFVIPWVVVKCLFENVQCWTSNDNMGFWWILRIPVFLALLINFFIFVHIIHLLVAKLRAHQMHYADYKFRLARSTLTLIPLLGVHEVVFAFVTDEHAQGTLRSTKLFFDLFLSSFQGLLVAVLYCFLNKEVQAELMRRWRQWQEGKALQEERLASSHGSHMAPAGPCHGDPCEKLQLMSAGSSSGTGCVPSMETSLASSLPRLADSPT

In the case of “glucagon (from UniProt P01275 53-81) (ligand)”, the EC50 of luciferase (cAMP/CRE reporter) stimulation in HEK293/GCGR cells turned out to be 0.083 nM in assay [1] and 0.252 nM in assay [2].
